This assay deals with 新型冠状病毒(SARS-CoV-2) S1蛋白 (野生型) (SARS-CoV-2, UniProt P0DTC2 16-685).

B1: 纳米抗体Nb-H6 (VHH)
VHH: QLVESGGGLVQAGDSLRLSCAASERALSSFHMGWFRQAPGKQRAFVAAIKWRDGTTYYADSVKGRFTISRDNAKNTVYLQMNSLEPEDTAVYYCYYRGRWGTYWGQGTQVTVSS
B1 displayed an IC50 of 9.8 µM.

Values taken from patent CN114773459A (UNIV SHENZHEN, dated 2022).
